Test in all cases: Kinase Profiling Assay
What all share (assay type): biochemical
Settings in all cases: 100 μM

The target in test [1] is T1, CaMKIIγ (h) (Homo sapiens, UniProt Q13555).
T1 construct: purchased Millipore
The essentials:
(§1)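 Measured twice per kinase, activity in presence of MK2 inhibitory peptide was calculated against a 100% activity control after radiometric phosphorylation of a cationic substrate, anionic filter capture and scintillation counting; one of 266 human kinases profiled for specificity.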

For test [2], the target named is FGFR1(V561M) (h) (Homo sapiens, UniProt P11362, V561M). The essentials: as §1
FGFR1(V561M) (h), sequence (P11362 22-822 V561M): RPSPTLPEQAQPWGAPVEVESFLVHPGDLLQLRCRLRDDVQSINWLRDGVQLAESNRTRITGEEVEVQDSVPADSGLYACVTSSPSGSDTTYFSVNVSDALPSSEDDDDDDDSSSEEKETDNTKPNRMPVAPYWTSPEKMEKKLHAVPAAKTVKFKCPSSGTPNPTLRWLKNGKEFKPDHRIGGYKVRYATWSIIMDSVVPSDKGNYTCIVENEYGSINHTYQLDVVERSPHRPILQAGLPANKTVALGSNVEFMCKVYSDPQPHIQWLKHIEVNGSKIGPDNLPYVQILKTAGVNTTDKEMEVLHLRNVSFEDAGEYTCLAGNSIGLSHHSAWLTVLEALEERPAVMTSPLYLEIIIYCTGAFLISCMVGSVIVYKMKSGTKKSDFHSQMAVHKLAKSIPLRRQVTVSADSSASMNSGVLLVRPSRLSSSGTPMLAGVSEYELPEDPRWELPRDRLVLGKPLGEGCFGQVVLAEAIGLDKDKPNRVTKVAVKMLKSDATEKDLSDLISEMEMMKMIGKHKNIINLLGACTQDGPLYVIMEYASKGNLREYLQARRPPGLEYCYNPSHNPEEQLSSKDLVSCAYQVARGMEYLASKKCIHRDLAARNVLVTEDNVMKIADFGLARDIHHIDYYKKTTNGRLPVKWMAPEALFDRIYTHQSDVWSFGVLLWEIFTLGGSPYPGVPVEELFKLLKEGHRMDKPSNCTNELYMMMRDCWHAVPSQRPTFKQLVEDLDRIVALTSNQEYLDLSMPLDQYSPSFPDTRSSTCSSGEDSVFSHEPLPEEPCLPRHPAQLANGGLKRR
Test [3] has as its target TLK2 (h) (Homo sapiens, UniProt Q86UE8). Put shortly:
as §1

Test [4] deals with T2, PrKX (h) (Homo sapiens, UniProt P51817).
T2 sequence (P51817 1-358): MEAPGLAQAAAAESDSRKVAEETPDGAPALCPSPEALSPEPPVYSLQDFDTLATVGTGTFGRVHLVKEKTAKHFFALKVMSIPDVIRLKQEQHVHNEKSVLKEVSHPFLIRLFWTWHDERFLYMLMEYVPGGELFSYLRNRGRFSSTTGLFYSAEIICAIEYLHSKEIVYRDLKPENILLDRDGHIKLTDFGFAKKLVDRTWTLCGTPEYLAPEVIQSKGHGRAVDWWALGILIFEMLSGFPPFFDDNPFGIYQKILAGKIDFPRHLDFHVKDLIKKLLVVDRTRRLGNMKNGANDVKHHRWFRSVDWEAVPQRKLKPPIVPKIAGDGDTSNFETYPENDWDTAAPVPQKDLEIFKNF
The essentials: as §1

In test [5] the target is EphA5 (h) (Homo sapiens, UniProt P54756). Put shortly:
as §1

The target of test [6] is AMPKα1 (h) (Homo sapiens, UniProt Q13131). Put shortly: as §1
In test [7] the target is T3, cKit (h) (Homo sapiens, UniProt P10721).
T3 construct: purchased Millipore
Put shortly:
as §1

Test [8] concerns the target T4, EphA8 (h) (Homo sapiens, UniProt P29322).
T4 sequence (P29322 28-1005): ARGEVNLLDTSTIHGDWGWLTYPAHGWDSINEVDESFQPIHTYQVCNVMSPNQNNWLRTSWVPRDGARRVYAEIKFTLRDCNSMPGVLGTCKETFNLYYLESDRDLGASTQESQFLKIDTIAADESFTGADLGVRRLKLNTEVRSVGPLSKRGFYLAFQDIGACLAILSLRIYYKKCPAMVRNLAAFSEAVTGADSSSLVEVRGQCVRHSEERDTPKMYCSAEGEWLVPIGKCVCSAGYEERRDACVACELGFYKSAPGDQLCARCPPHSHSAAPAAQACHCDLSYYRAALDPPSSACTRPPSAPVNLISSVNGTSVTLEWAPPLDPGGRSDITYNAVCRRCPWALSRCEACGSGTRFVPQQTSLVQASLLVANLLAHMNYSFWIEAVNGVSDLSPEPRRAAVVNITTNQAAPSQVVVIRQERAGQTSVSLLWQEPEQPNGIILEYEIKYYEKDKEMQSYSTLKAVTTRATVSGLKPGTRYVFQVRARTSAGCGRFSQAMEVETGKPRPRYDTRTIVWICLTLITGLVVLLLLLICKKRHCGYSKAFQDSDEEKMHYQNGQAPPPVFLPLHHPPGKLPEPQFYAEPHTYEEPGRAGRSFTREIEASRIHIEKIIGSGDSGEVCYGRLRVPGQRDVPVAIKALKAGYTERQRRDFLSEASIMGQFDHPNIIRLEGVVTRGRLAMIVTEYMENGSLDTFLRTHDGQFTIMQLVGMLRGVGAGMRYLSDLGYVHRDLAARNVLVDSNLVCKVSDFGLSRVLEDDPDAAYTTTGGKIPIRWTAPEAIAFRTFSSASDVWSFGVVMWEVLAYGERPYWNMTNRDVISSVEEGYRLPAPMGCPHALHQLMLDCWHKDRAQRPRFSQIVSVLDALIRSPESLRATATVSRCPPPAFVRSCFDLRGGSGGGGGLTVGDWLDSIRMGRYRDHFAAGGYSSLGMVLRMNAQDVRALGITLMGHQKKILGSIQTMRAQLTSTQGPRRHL
Put shortly:
as §1

Test [9] addresses T5, IRR (h) (Homo sapiens, UniProt P14616).
T5 construct: purchased Millipore
The essentials:
as §1

Test [10] deals with T6, CDK5/p35 (h) (Homo sapiens, UniProt Q00535).
T6 construct: purchased Millipore
T6 sequence (Q00535 whole entry): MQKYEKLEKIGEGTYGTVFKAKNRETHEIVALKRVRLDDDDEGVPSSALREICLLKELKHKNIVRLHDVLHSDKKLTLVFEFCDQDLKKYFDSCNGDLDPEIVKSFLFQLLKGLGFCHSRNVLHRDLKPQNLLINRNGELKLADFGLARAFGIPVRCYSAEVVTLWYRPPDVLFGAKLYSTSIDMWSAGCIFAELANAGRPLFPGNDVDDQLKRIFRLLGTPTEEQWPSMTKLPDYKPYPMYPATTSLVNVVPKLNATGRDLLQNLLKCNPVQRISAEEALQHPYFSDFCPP
T6 sequence (Q15078 2-307 partner limits assumed): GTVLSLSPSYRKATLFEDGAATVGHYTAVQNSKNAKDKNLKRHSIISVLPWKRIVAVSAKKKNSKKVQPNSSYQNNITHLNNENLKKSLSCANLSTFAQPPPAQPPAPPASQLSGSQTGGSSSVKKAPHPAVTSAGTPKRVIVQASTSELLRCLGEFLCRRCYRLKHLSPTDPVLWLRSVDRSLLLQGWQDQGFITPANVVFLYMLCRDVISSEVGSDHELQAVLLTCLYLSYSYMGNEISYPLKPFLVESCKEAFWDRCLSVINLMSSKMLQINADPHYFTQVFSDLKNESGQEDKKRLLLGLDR
The essentials: as §1

Test [11] concerns the target Axl (h) (Homo sapiens, UniProt P30530). The essentials:
as §1

The target of test [12] is Pyk2 (h) (Homo sapiens, UniProt Q14289). Put shortly:
as §1

The target of test [13] is T7, SGK2 (h) (Homo sapiens, UniProt Q9HBY8).
T7 sequence (Q9HBY8 1-367): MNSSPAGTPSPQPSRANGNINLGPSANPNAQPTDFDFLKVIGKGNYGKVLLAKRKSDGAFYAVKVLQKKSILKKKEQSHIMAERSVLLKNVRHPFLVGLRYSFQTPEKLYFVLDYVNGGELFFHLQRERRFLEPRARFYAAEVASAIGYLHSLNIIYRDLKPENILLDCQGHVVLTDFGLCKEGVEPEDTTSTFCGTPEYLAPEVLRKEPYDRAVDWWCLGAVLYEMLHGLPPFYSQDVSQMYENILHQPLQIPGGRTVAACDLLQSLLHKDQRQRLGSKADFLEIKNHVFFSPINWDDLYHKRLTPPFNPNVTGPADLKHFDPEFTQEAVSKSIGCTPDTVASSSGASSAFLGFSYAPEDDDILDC
Put shortly:
as §1

The target in test [14] is Met(Y1248H) (h) (Homo sapiens, UniProt P08581, Y1230H). The essentials:
as §1

In test [15] the target is Flt1 (h) (Homo sapiens, UniProt P17948). The essentials: as §1
Flt1 (h), sequence (P17948 27-1338): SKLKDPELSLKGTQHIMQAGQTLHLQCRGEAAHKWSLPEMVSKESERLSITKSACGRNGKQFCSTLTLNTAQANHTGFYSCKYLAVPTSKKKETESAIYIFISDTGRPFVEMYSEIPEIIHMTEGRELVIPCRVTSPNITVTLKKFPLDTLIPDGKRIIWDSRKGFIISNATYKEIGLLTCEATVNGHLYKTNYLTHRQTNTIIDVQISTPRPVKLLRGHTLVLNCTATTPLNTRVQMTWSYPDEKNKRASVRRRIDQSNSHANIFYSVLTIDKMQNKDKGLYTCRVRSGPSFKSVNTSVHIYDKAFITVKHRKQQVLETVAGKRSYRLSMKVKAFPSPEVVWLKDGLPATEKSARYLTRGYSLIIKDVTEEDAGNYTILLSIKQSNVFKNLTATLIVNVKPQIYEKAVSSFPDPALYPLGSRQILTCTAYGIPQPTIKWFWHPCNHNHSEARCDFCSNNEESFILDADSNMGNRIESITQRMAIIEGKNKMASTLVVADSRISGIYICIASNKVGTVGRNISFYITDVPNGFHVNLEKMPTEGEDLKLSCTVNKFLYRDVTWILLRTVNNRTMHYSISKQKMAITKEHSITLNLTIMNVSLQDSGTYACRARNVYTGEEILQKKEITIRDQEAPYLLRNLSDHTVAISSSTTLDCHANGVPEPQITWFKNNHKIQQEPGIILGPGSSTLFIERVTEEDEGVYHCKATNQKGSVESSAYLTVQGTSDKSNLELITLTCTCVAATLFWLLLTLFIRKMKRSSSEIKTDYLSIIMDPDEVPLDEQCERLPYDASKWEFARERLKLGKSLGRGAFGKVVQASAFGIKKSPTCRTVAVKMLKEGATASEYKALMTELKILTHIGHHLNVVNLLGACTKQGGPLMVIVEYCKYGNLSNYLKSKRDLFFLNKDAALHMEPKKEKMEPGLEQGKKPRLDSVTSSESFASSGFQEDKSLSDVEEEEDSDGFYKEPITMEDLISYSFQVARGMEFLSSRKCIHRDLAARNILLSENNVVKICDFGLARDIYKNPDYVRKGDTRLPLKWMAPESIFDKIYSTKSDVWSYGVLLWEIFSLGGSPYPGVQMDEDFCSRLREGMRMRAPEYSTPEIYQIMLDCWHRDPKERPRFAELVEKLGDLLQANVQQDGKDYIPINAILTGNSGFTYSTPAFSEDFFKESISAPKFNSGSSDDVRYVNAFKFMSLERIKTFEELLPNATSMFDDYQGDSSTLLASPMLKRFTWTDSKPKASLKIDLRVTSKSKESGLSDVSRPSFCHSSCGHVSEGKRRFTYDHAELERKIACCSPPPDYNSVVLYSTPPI
Test [16] has as its target Aurora-B (h) (Homo sapiens, UniProt Q96GD4). Put shortly:
as §1

The target in test [17] is T8, PDGFRα (h) (Homo sapiens, UniProt P16234).
T8 construct: purchased Millipore
Put shortly:
as §1

4 sequences from patent US10500249B2, “Compositions and methods for preventing or treating diseases, conditions, or processes characterized by aberrant fibroblast proliferation and extracellular matrix deposition” (MOERAE MATRIX, INC., priority 2014, dated 2019) can be followed below.

T1 sequence (Q13555 whole entry): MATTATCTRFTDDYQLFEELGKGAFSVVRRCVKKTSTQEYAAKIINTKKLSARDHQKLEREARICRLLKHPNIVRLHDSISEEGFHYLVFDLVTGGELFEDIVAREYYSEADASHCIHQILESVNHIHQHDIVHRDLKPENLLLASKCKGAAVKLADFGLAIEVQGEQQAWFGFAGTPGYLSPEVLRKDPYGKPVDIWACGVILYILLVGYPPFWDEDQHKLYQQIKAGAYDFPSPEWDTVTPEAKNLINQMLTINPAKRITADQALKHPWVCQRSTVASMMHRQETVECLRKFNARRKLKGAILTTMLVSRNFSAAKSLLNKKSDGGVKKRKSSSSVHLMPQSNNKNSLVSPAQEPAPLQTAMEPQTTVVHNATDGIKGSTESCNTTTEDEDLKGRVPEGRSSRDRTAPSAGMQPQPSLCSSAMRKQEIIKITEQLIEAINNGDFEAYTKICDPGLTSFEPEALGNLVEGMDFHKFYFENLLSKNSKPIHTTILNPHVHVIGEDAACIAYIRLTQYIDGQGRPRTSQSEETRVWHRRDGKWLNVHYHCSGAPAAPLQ
Pyk2 (h), sequence (Q14289 whole entry): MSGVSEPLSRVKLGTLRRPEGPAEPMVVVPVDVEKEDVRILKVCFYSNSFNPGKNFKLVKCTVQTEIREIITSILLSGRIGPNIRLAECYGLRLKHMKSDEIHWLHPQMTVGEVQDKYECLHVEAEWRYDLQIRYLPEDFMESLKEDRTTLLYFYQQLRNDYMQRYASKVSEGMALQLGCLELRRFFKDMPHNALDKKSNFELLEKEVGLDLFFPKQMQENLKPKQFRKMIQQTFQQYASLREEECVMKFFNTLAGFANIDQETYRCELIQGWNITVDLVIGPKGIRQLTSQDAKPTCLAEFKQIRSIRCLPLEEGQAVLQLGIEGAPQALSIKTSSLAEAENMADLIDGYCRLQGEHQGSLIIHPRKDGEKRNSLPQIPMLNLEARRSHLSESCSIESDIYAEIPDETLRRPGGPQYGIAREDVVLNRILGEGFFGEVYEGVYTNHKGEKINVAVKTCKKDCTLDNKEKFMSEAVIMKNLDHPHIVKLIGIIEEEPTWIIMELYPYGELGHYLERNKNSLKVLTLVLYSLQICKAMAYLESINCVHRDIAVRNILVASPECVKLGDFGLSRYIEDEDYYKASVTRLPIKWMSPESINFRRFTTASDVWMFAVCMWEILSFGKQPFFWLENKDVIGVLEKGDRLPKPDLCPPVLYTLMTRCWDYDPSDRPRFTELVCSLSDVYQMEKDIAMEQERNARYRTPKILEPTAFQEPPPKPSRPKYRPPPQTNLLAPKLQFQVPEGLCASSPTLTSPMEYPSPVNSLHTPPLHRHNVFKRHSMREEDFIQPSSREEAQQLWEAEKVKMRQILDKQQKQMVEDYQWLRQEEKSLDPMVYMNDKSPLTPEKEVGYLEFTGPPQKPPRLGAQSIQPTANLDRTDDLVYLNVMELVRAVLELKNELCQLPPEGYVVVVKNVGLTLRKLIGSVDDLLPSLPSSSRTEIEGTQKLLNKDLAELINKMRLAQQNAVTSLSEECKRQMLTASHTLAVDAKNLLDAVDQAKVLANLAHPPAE
TLK2 (h), sequence (Q86UE8 whole entry): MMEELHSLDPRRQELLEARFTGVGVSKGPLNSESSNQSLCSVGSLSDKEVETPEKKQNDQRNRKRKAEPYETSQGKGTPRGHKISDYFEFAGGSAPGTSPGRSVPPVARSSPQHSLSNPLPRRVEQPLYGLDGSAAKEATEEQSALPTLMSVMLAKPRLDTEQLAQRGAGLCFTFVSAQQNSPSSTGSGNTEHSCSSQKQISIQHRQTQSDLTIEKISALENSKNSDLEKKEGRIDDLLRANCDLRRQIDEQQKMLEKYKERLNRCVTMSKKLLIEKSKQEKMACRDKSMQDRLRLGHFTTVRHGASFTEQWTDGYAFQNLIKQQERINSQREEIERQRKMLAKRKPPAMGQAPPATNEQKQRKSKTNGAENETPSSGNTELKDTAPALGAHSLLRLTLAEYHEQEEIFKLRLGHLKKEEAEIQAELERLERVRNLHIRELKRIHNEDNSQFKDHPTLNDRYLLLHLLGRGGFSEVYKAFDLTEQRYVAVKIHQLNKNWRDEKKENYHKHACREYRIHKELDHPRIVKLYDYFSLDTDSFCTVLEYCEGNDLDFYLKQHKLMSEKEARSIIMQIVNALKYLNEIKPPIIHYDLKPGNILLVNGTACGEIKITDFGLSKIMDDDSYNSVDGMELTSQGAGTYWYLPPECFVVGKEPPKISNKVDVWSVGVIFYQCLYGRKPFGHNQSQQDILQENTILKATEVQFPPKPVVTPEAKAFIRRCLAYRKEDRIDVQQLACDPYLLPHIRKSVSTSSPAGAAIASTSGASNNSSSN

Consider KAFAKLAARLYRKALARQLGVAA [MMI-0400], for which the “% activity” value in test [1] stood at 3%; in test [2], 74%; in test [3], 151%; in test [4], 76%; in [5], 24%; in test [6], 87%. In addition, the “% activity” value in [7] is listed as 43%; in test [8], 146%; in test [9], 8%; in [10], 76%; in test [11] it was 41%; in test [12], 34%. Also, the “% activity” value worked out at 98% in test [13]; 63% in [14]; 48% in [15]; 150% in test [16]; 40% in test [17].

Regarding “YARAAARQARAKALNRQLGVA (Mammalian) [MMI-0200]”, the “% activity” value in test [1] amounted to 94%; in [2], 72%; in test [3], 129%; in test [5], 123%; in [6] it was 108%; in test [7], 110%. For the same sequence, the “% activity” value came out at 133% in test [8]; 69% in [9]; 92% in test [10]; 99% in [11]; 127% in test [12]; 153% in test [14]. Besides, the “% activity” value in test [15] was 96%; in test [16], 166%; in test [17] it was 108%.

For “HRRIKAWLKKIKALARQLGVAA (Mammalian) [MMI-0500]”, the “% activity” value in [1] is recorded as 3%; in test [3], 133%; in test [4], 57%; in [5], 42%; in test [6], 35%; in [7], 45%. The “% activity” value in [8] is recorded as 337%; in test [9], 10%; in test [10], 59%; in test [11], 12%; in [12], 46%; in test [13] it was −1%. Moreover, the “% activity” value in test [14] is recorded as 126%; in test [15], 27%; in test [16] it was 5%; in [17] it was 40%.

As to FAKLAARLYRKALARQLGVAA [MMI-0300], the “% activity” value was determined as 5% in [1]; 74% in [2]; 61% in [4]; 18% in [5]; 71% in test [6]; 53% in test [7]. The “% activity” value in test [8] came out at 93%; in test [9], 8%; in [10], 79%; in test [11] it was 52%; in test [12], 47%; in test [13] it was 56%. Further, the “% activity” value was 69% in test [15], 128% in test [16] and 65% in [17].
